T1: synthetic peptide MSP-3190-217 (Plasmodium falciparum)
T1 peptide: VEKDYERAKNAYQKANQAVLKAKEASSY

T2: synthetic peptide MSP-3211-237 (Plasmodium falciparum)
T2 construct: also called MSP-3b
T2 peptide: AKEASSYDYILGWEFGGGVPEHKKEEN

B1: RAM2 Fab-ΔpIII (Fab, V domains shown)
VH: QVQLQESGGGLVKPGGSLKLSCAASGFTFSSYGMSWVRQTPDKRLEWVATISSGGSYTYYPDSVKGRFTISRDNAKNTLYLQMSSLKSEDTAMYYCARLYYGYRYYFDYWGQGTMVTVSS
VL: DIQLTQSPSSLSASIGDRVTITCQASQDITNSLNWYQQRPGQAPKLLIYDAFTLKTGVPSRFSGRGSGTSFTIAINSFQAEDIGTYFCQQSHRVPFTFGGGTRVEIKR
notes: Human Fab made in E. coli from pFAB73H; VH is joined to human gamma 1 CH1 (residues 118 to 230), then a spacer with a trypsin site and truncated f1 phage pIII (ΔpIII); The light chain is VK plus human kappa constant domain; also called Fab-ΔpIII RAM2; RAM2 in the Fab-ΔpIII format
B2: RAM2 IgG1 (antibody, V domains shown)
VH: B1 VH
VL: B1 VL
notes: Intact human IgG1 kappa, allotype G1m(a,z), made in CHO cells
B3: recombinant MSP-3194-257 (other)
chain: HERAKNAYQKANQAVLKAKEASSYDYILGWEFGGGVPEHKKEENMLSHLYVSSKDKENISKENE
notes: also called panning antigen
B4: RAM1 Fab-ΔpIII (Fab, V domains shown)
VH: QVQLVQSGGGVVQPGRSLRLSCAASGFTFSSYAMHWVRQAPGKGLEWVAVISYDGSNKYYADSVKGRFTISRDNSKNTLYLQMSSLRAEDTAVYYCVKGASSWSTGTLVTVSS
VL: DIVMMQSPATLSASVGDRVTITCRASQSISSWLAWYQQKPGKAPNLLIYKASSLESGVPSRFSGSGSGTEFTLTISSLQPDDFATYYCQQYKSFPYTFGQGTRLEIKR
notes: Human Fab made in E. coli from pFAB73H; VH is joined to human gamma 1 CH1 (residues 118 to 230 of the H chain), then a spacer with a trypsin cleavage site and truncated f1 phage protein pIII (ΔpIII); The light chain is VK plus human kappa constant domain; also called Fab-ΔpIII RAM1; RAM1 in the Fab-ΔpIII format
B5: RAM1 IgG1 (antibody, V domains shown)
VH: B4 VH
VL: B4 VL
notes: Intact human IgG1 kappa, allotype G1m(a,z), made in CHO cells from pLNOH2 and pLNOK; also called IgG1 anti-MSP3; RAM1 in the IgG1 format
B6: RAM3 Fab-ΔpIII (Fab, V domains shown)
VH: QVQLVQSGGGVVQPGRSLRLSCAASGFTFSSYAMHWVRQAPGKGLEWVAVISYDGSNKYYADSVKGRFTISRDNSKNTLYLQMNSLRAEDKAVYYCARDSGGIAARLGGYFDLWGRGTTVTVSS
VL: DIRMTQSPSFLSASVGDRVTITCRASQGISSYLAWYQQKPGKAPKLLIYAASTLQSGVPSRFSGSGSGTEFTLTISSLQPEDFATYYCQQGPTFGGGTKVEIKR
notes: Human Fab made in E. coli from pFAB73H; VH is joined to human gamma 1 CH1 (residues 118 to 230), then a spacer with a trypsin site and truncated f1 phage pIII (ΔpIII); The light chain is VK plus human kappa constant domain; also called Fab-ΔpIII RAM3; RAM3 in the Fab-ΔpIII format

Tests used:
recombinant MSP-3194-257 = biological target: B3; test: direct ELISA, coated recombinant antigen
[1] = biological target: T3, native MSP-3 antigen of Plasmodium falciparum clone 3D7 schizonts and merozoites (Plasmodium falciparum); test: flow cytometry on ethanol-fixed permeabilized schizonts, FITC anti-human Fab
T3 construct: whole, on cells; The motif 220-230 is also present in MSP-6; also called native malaria antigen; parasite proteins
Method: The gating was placed to include the majority of the infected cells. The gating was used for the histograms described below.
Parasites were then washed in PBS with 1% BSA, incubated over night with antibody (Fab-ΔpIII or IgG1), washed twice with PBS supplemented with 1% BSA and incubated for 30 minutes with FITC-conjugated goat anti-human Fab (Sigma F5512) diluted 1:25. Cells were analyzed in a Coulter EPICS-2 flow cytometer. Hib-CP specific antibody was used as control in corresponding concentrations.

[2] = biological target: T1, synthetic peptide MSP-3190-217; test: ELISA on synthetic peptides
[3] = biological target: T2, synthetic peptide MSP-3211-237; test: ELISA on synthetic peptides
RAM2 Fab-ΔpIII = biological target: B1; test: antigen competition ELISA; soluble antigen 4 nM to 1250 nM against coated MSP-3194-257

B1
binding result (recombinant MSP-3194-257): binds | percent of events under the bar M1 [1]: 28%

B2
binding result [2]: binds | binding result [3]: binds

B3
binding result (RAM2 Fab-ΔpIII): binds

B4
percent of events under the bar M1 [1]: 76%

B5
percent of events under the bar M1 [1]: 47%

B6
percent of events under the bar M1 [1]: 4%
